Laboratory results taken from a protein production outcome set (Wang et al. 2014).

Assay: label from the status in PepcDB records

| Sequence | protein production |
| --- | --- |
| MFFGLTLGTAVATGGRDSTLKRAAPQASCMDVHNVTAEAETFTCNAYLATGEQTTLVDAGAMRGVVDVIREHADALDAVVLTHQHGDHVQRLDTVLDAFDAPLYAYGSHPRRDHALADGDTLTVGDEECEVVYTPGHADDHVSLVSESALFSGDVVVHDDGAFDDGSFGRTDRPGQSRERLIESIERILDRMPAGVEHMYSGHGGVFHGDVREVVERALERAERREPKYPDD | failed |
| MADNYVIWFENLRMTDVERVGGKNASLGEMISQLTEKGVRVPGGFATTAEAYRAFLAHNGLSERISAALAKLDVEDVAELARVGKEIRQWILDTPFPEQLDAEIEAAWNKMVADAGGADISVAVRSSATAEDLPDASFAGQQETFLNINGLDNVKEAMHHVFASLYNDRAISYRVHKGFEHDIVALSAGVQRMVRSDSGASGVMFTLDTESGYDQVVFVTSSYGLGENVVQGAVNPDEFYVFKPTLKAGKPAILRKTMGSKHIKMIFTDKAEAGKSVTNVDVPEEDRNRFSITDEEITELAHYALTIEKHYGRPMDIEWGRDGLDGKLYILQARPETVKSQEEGNRNLRRFAINGDKTVLCEGRAIGQKVGQGKVRLIKDASEMDSVEAGDVLVTDMTDPDWEPVMKRASAIVTNRGGRTCHAAIIARELGIPAVVGCGNATELLKNGQEVTVSCAEGDTGFIYAGLLDVQITDVALDNMPKAPVKVMMNVGNPELAFSFANLPSEGIGLARMEFIINRQIGIHPKALLEFDKQDDELKAEITRRIAGYASPVDFYVDKIAEGVATLAASVYPRKTIVRMSDFKSNEYANLVGGNVYEPHEENPMLGFRGAARYVADNFKDCFALECKALKRVRDEMGLTNVEIMIPFVRTLGEAEAVVKALKENGLERGKNGLRLIMMCELPSNAVLAEQFLQYFDGFSIGSNDMTQLTLGLDRDSGLVSESFDERNPAVKVMLHLAISACRKQNKYVGICGQGPSDHPDFAKWLVEEGIESVSLNPDTVIETWLYLANELNK | not failed |
| MDMLKKRKLDENGIAMLHDGVSGSVSFRLVPQDARKITELFFADQLLDILQEAIVRHPDVLFFFF | failed |
| MDDIFTQCREGNAVAVRLWLDNTENDLNQGDDHGFSPLHWACREGRSAVVEMLIMRGARINVMNRGDDTPLHLAASHGHRDIVQKLLQYKADINAVNEHGNVPLHYACFWGQDQVAEDLVANGALVSICNKYGEMPVDKAKAPLRELLRERAEKMGQNLNRIPYKDTFWKGTTRTRPRNGTLNKHSGIDFKQLNFLTKLNENHSGELWKGRWQGNDIVVKVLKVRDWSTRKSRDFNEECPRLRIFSHPNVLPVLGACQSPPAPHPTLITHWMPYGSLYNVLHEGTNFVVDQSQAVKFALDMARGMAFLHTLEPLIPRHALNSRSVMIDEDMTARISMADVKFSFQCPGRMYAPAWVAPEALQKKPEDTNRRSADMWSFAVLLWELVTREVPFADLSNMEIGMKVALEGLRPTIPPGISPHVCKLMKICMNEDPAKRPKFDMIVPILEKMQDK | failed |
| MSLLSLLIALAADRSLSAKVWQFNFYYQHYHHFFSKNFTAKQGTTASAVFIILPVIATYLLLDVIDNSVLQLLFSTVILIVCFGCTTTRKSYKSYLHSAFRGEETTTEMHHEQLLSDKNLPEMGFGQALIWLNYRYYIAIMLFFTVFGAAGAVFYRLLTTVIEHKKAKCMASAAENKAQAEVSSVDESDIESEEHHQAVHEGNVAPNIMNGCQNHHDVLFWLDWLPVRIASFGYMFVGHFSKAMPVWLESLFDSQKPTHQVLIDVAEKSEDLLVNENDCTAEPCLLVRLAKRNVLLVLAVISILTLSGLLN | failed |
| MHESMREIAERATFQSFANCYRREIDPGMPSQHRPECGDRRTYVEWSCPMAAATLRAEVERESLCGPFRFGRVFICRAPDNAWHEIAPLRALYLMVQECYSGIGAARAEALRNEEAELLGRVLASYQCIADSLQRSSGEAGRTFLDGEQSLMFGHWLHPTPKSRQGMADWQQPTYAPEHRGQFQLTYFAVDAALLRYGSAGDVSVSGILETLLPEADRPTLRPGEALIPLHPMQAEAVMLSPDIAELAREGRLRRLGPFGAEFSPTSSVRTVYSPAIPWMLKFSLPVRITNSLRINRMPELKAGVAMSRLFARTDFLARHPCFRLIRDPAYLTLGLPGRTESGFEIIFRENPFTTGNETKGITIAALTADPPPHARSRLDVLVREYAAQQGLPVASACRHWFSAYLDCALDPLVRLYNELGVALEAHQQNVLLDVSSGLPTASYYRDNQGFYLSNAHRDRLVSLVPETAEIGGLYFDDHVIQERFAYYLIVNQICSMIARMGQDRLIDEEALLIMLRERLNGLARELAGVGRDFASGIVDRPTVAAKANLLTRMLDIDELEAEDGRAIYVQLPNPLFGDRRSARRGEARAASR | failed |
| MSAELTRARQQLSQIRGYLRQGKVMPAAQAFQSALVIVLKSPLMRAEREEFERMFADAAHHLNNDAGLRALFPLKIEYLPGSEKELLDIIRELVTAVNNAAVTEAQEQLAALDARKAAGLEQGQAHLDAQEFDAAAAVFRQLSHEFKDDPQLRGEIGERFLKAGRYEEAFDYLAQALDLSPESIHLYNRIGIALRRLGRFETGEKYYLRALQYAGHDPNLLFNLGRLYVDWQRWDKVAKAAAAALRVNPAFDEARKMLEFAERKLQR | failed |
| MKNRRTRWYRSLALRLLFIFWALLSVTAASGYLLAVWNKPKAELKPLEPEIYQTLQPLLSDALTFHSLQPGRLIAGDYRVAAQLSVQGSEKLLMDEMLRVSHGSTLLRMLGQESPQQIPLDERLLMGPFELDGNKILVTKPLGIEEQVDRERLEAESTRARILTLMVGSGLLAVLLGIWLIRPIRRMILAMREVADGSATPELKRLPKRGDEIGELARALSQGAVDLATSRDAQRRLLSDVSHELRSPMARMQVALDLADCNEDDPNWQQLRRDTERLSVIIERILSLSRLENGLVDLNHESLDSGELVQQLINDMCYQHPEVRERLLRHGSNWPVIDTDPELLRLVLENIVRNALHYTEDNVELSCDDYGKGCHIRIRDHGPGVDESTISKLFVPFYRGDPARHHKAGVGLGLALSHRAAAVLGGELKAHNHSEGGLEVVLDLPKSQPEQKE | failed |
| MLSFLSARQSGLEDPLRLRRAQSTRRVLGLELNKDRDVERIHGSGVNTLDIEPVEGRYMLSGGSDGVVVLYDLENASRQPHYTCKAVCSVGRSHPDVHKYSVETVQWYPHDTGMFTSSSFDKTLKVWDTNTLQAADVFNFEETVYSHHMSPAATKHCLVAVGTRGPKVQLCDLKSGSCSHILQGHRQEILAVSWSPRHDYILATASADSRVKLWDVRRASGCLLTLDQHNGKKSQAAESANTAHNGKVNGLCFTSDGLHLLTIGTDNRMRLWNSSSGDNTLVNYGKVCNDSRKGLQFAVSCGCSSEFVFVPHGSTIAVYAVHSGERLAMLKGHYKSVDCCVFQPNFQELYSGSRDCNILAWVPPSYEPVPDDDDEAPAKSQLNPAFADAWSSSDEDG | failed |
| DEETKAFEALLSNIVKPVASDIQARTVVLTWSPPSSLINGETDESSVPELYGYEVLISSTGKDGKYKSVYVGEETNITLNDLKPAMDYHAKVQAEYNSIKGTPSEAEIFTTLSCEPDIPNPPRI | not failed |
| MKKFLFILSLFCVLSYAYELKLNANITALKLDKQNLYIGTDKGEILQYNIKDKSLKELLSLPKIKNYYGDDFAKIYNIDIFKHTLLILSEGDFGAKNLSFYKENLQIKKLEENSIIKAFFINENTYLLISIGSEIELIDKSLKNIKKFNFSHSSLNDAVLNEDKSRLIAGFESGEVELFDLKNWKMLKNYDKMHKDNIYQVDFKNNVILSCGTDRRIGVVKNEEQNFLQKDFLIYTCALSPSGEFAVYSDNEAGVSEVFSTSDFKPVKTFNNENLMSEFIIFLNNKDFIVSGFGDSIMFRSIDE | failed |
| DLEVHGDKDDAELLIIGWGGTYGHLYETMERMRNAGKKVALAHFRFINPLPKNTAEVLQRYPKAVVAEQNLGQFALYLRGEVPGFHPLQFNRVTGQPLVMSEMVEVFTQMMEEK | failed |
| MSVAFVPDWLRGKAEVNQETIQRLLEENDQLIRCIVEYQNKGRGNECVQYQHVLHRNLIYLATIADASPTSTSKAME | failed |
| MVIIVSMKANGFFDEQSSLKKSKIGLNLVWMFSLGHIFLITLSNVLVQYPFDMMGFHTTWGAFTYPAIFILTDLTTRIATANKARKIIMLSMTPGLILSYLVASYIEAGNNLNESGLSVLHLMPLRIALACFIAYVVGQLLDVAVFQRYRNRPAWWLAPTLSAVAGNFIDTALFFTIAFYHCSNPFLSQNWPEIAMVDVFFKIMISLIAFVPVYGLVLSILGIKTTNKLMV | failed |
| MKLNIKISDKLKLFFKIAFVSVVILFIVREFTSVFKNFNSEYFFMYRNKLDFLNLLIIAALGIISYIPLSFYDFILKRKVGIRLKNRKLYKYSWIASSIASLLGFGGATSLAFKQYFYGDYVDDKKKLLKEIGKIVALNLTGLSIVCCTYMGIRISSWNNLGIIKYAIGIIALYAPGFIIYSAYKYSKTKDKLEFFSTLGIIFISFLEWLTTIILIYATLRITGASISVLTFLPIYIEAAVVGMISMIPGGIGTFDLTFMTGLEVLGIPIEQTLLVIILYRISYYIVPALIGVLLFVHDFGGKINKKFNGLPYEIVSKVAYKIVVSLVFISGAIIVLSNIAPQYLLKIKLLKEILGKQVLGLSIGMSVVLGFLIMLAALMLKYRAKSIYKASMVLFILGIILSLTKGINPYELVFLIIVAYLLYLSKRMFYRDSFVVSCKNTLIDSGILIASFSIYFFILITFGTHLKYVGIVRKMPYKMAYKFGFIAFALVTVIYVAIYFLNIRRKIPVKTFDQCSEYVEKIIEEYKGDSLTHLVFLKDKYIYLNEDKDLFIQYEVYGDKLFVLGNPVGNNENLFREIEKFCEYADNYGYTPVFYQVNDEMISYLHSNGYDFMKIGEEAKVDVKEFKVVGNKMKSLKTSRSKVTKEGYTFHMVEPPFSKEFLDSLREISDEWLDGRKEKGFSVGFFDEDYLNKAPIAILKDREGEIKAFANIMYMYDNESFSVDLMRFSKNTPRGVMDFMFINLIEYGKENGYEIFNMGMAPLANVGLSKYAFWNEKLALQFYENGQALYSFKGLRRFKEKFSHNWEYKYIAYRRNTSILITVIQAAIVCSRNRNVDESIVVRNLKSLIK | failed |
| KKLCGYLSKFGGKGPIRGWKSRWFFYDERKCQLYYSRTAQDANPLDSIDLSSAVFDCKADAEEGIFEIKTPSRVITLKAATKQAMLYWLQQLQMKRWEFHNSPPAP | not failed |
| MSSLAQREERSSDGREPARAWAVTIVVLGLLLVIWPFVRTPPLPIAPAYAHLLGAWLGAVVALAAMARALRPHRRRGPPDA | failed |
| MAKASSPTDTGKQKVRSAEVGTDILKALAELSPSTSLSRLAEHVQMPASKVHRYLQALIASGFAEQDAATNHYGLGREALRVGLAALGSIDVLKVAAMPLSQLRDELNESCFIAVWGNQGATVVSIEPAVRAVTVVTQIGSVLPLLSSSTGLVFAAYLPERETQELRDRELAALQQTASDYHTLLAGIREKGLHHVHGLLMPGVDALSAPVFNAMGQIAAVMTVVGPTSIFHADEHGPAAQSLLTAARTVSWRMGYAGNPHCASTSSVSSSTSQSSS | failed |
| MTAARSAPSPAGAPRPGLRERKKTRTREAIRAATYGLIRQQGYEATTVEQIAERAEVSPSTVLRYFPTREDIVLTDEYDPVMAAELAARPAGEPWSDSLRHVLRKALGLGAGEEAELIRLRTRLLAEVPAVRARMLENMSDTGRMLARAIADRTGLDPDGLEVRIVSMSLVGGLMEVSRYWAEHDHEESLAELVDRALDALENGLPALRESDRESDREGDRGGHREDRREGPRKD | not failed |
| MSLSRPLLFALTALSLTAASLAHAADKKAADKPAPSAVSKADKALHDKFLTLDTHLDTPAHFGRPGWDIADHHEVEHDFSQVDLPRMNQGGLDGGFFVVYIGQGELTEKGYTYARDYALHRTIEIREMLAANPDTFEMALTSDDARRIAKAGKKFAFVSMENSWPVGEDLSLVETFYKEGLRMAGPVHFRNNQLADSSTDPKGKIWNGYSPLGLRWLAEANRLGIVIDVSHASDDVVDQSVALSKAPIIASHSGPKAVYDHPRNLDDARLKKIADAGGAICINSIYLTDTTPSPERKAALEALGRAPDMKTATPEAVKAYADKRAAIDKAHPAARGDFDLYMKSMLHVLKVAGPKGVCVGADWDGGGGMDGFEDITDLPKITARLKAEGYSDADIEAIWSGNVLRIVDAAQAYAKSVTKEGHHHHHH | not failed |
